Assay results as given in patent US20170114118A1 (NATIONAL INSTITUTE FOR BIOTECHNOLOGY I, published 2017).
Substitutions are numbered along the chain they refer to.

Key:
[1] = target: T1, TNF-like 1A (TL1A) (UniProt O95150 72-251); experiment: SPR (ProteOn XPR36), DR3-Fc immobilized, TL1A as analyte
T1 construct: Bought soluble TL1A; Biotinylated for yeast display, unlabelled in SPR and ELISA; also called TL1A cytokine
T1 sequence (looked up): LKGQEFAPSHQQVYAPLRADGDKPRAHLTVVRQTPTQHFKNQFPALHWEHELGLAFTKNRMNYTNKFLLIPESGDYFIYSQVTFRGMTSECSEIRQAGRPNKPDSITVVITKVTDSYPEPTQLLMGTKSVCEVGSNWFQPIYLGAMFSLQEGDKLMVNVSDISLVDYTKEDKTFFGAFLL
Procedure: The affinity of TL1A binding to DR3 variants was determined by surface plasmon resonance (SPR) measurements on a ProteOn XPR36 (Bio-Rad) instrument. All samples were in PBS containing 2 mM of DTT. A GLC Chip was air-initialized and activated with EDC/S-NHS. 5 μg from each of the DR3 variants were diluted in acetate buffer, pH 5.5, and immobilized onto the chip as a reference and BSA was also loaded onto the chip. After blocking available unbound sites on the chip with ethanolamine, the chip was washed with HBST buffer and rotated. TL1A was run at 30 μl/min for 300 sec at various concentrations (100, 50, 25, 12.5 and 6.25 nM), followed by a 10-min dissociation step. Binding parameters were determined with the Langmuir single binding site model, using the Bio-Rad's proteOn Manager software V2.1.2.05.
Next, the TL1A binding affinity to the different DR3 variants was characterized using surface plasmon resonance (Table 3).

[2] = target: T1, TNF-like 1A (TL1A); experiment: ELISA screen, HEK293 medium with secreted DR3-Fc on captured TL1A
Procedure: The plates were then washed with PBST and blocked by incubation with 150 μl of PBS supplemented with 3% skim milk for 1 hour. Following blocking, the plates were washed and incubated with 100 μl of media of HEK293T transfected with WT or DR3 mutants harvested 48 or 72 hours post transfection, ELISA plates were shaken for additional hour. DR3-Fc (R&D Systems) was added at a concentration of 2 μg/ml as a positive control, and PBS supplemented with 1% BSA served as a negative control. Plates were then washed with PBST, incubated with 100 μl of 0.05 μg/ml of biotinylated goat polyclonal α-DR3 antibodies (R&D Systems), followed by incubation with secondary peroxidase-conjugated streptavidin (Jackson, 1:10000 dilution). Finally, 100 μl of horseradish peroxidase (HRP) chromogenic 3,3′,5,5′-tetramethylbenzidine (TMB) substrate solution (Dako) were added. The reaction was stopped by the addition of 1 M sulfuric acid and recorded at 450 nm using a Tecan Infinite M200 plate reader.
To identify single DR3 mutant candidates with enhanced binding affinity for TL1A, the FACS-enriched library was sub-cloned into a mammalian vector containing leader peptide and fused with human IgG1 Fc. […] Thus, the mammalian based expression of soluble DR3 receptor offers the advantage of maintaining the native protein posttranslational modifications including glycosylation. To obtain high level of DR3 expression in mammalian cells, the leader peptide sequence was optimized (FIG. 4), transfection and expression conditions in HEK293F cells (see Experimental Procedures for details). To facilitate the screening of a relatively large number of DR3 mutants, cells were transfected in 24 plate format and the secreted DR3 was examined for TL1A interaction using ELISA. A fast and sensitive ELISA that is based on immobilizing TL1A on multi-well plates and detecting DR3 binding using specific antibodies was developed (FIG. 5).

[3] = target: T1, TNF-like 1A (TL1A); experiment: flow cytometry of yeast displaying DR3 as Aga2 fusion, incubated with 0.2 uM biotinylated TL1A, detected with streptavidin-APC
Procedure: FIGS. 3A-B. Screening for improved DR3 mutants using yeast surface display (YSD). […] Expression and TL1A binding are detected by fluorescent antibodies and streptavidin, respectively. (B) Flow cytometry histogram analysis of cell population displaying WT DR3, DR3 mutant library after two rounds (R2) and three rounds of enrichment (R3) for binding to TL1A. Cell population that lacks surface display is shown in black. Analysis of cells was performed following incubation with 0.2 μM of TL1A.
Briefly, EBY100 cells transformed with plasmid pCTCON containing the desired clone were grown in SDCAA media (20 g […], 6.7 g yeast nitrogen base, 5 g casamino acids, 5.4 g Na2HPO4 and 8.56 g NaH2PO4*H2O) at 30° C. to logarithmic phase. Then, 2*10⁶ of cells were washed, resuspended in SGCAA induction media (similar to SDCAA but containing galactose instead of […]) and grown at 30° C. with shaking for an additional 18 hours. Induced cells (1*10⁶) were collected by centrifugation, washed with PBSF (PBS+1 g/L BSA) and incubated for 1 hour at […] with 0.2 μM TL1A (R&D Systems) that was biotinylated using biotin labeling kit (Pierce) according to manufacturer's procedure. […] The labeled cells were washed, resuspended with PBSF and analyzed by flow cytometry (FACS Calibur, BD).

B1: WT DR3 extracellular domain fused with human IgG1 Fc (DR3-Fc WT) (Fc fusion)
chain: GGTRSPRCDCAGDFHKKIGLFCCRGCPAGHYLKAPCTEPCGNSTCLVCPQDTFLAWENHHNSECARCQACDEQASQVALENCSAVADTRCGCKPGWFVECQVSQCVSSSPFYCQPCLDCGALHRHTRLLCSRRDTDCGTCLPGFYEHGDGCVSCPTSTLGSCPERCAAVCGWRQIEGRMDRSVECPPCPAPPVAGPSVFLFPPKPKDTLMISRTPEVTCVVVDVSHEDPEVKFNWYVDGVEVHNAKTKPREEQYNSTYRVVSVLTVLHQDWLNGKEYKCKVSNKGLPSSIEKTISKAKGQPREPQVYTLPPSREEMTKNQVSLTCLVKGFYPSDIAVEWESNGQPENNYKTTPPVLDSDGSFFLYSKLTVDKSRWQQGNVFSCSVMHEGLHNHYTQKSLSLSPGK
notes: also called DR3 WT; soluble DR3 WT
Work on B1 yielded a Kd [1] of 44.9 nM, a koff [1] of 0.00072 s⁻¹ and a kon [1] of 16000 M⁻¹ s⁻¹.

B2: DR3 variant having SEQ ID NO: 7, fused with human IgG1 Fc (Fc fusion)
chain: B1 chain with E38K, V47P, A65T, Q101S
notes: Tested as secreted Fc fusion in HEK293 medium (ELISA screen); Linker and Fc as for m2
B2: binds [2].

B3: DR3 variant having SEQ ID NO: 9, fused with human IgG1 Fc (Fc fusion)
chain: B1 chain with H15Q, V47P, N61E, K93E, Q101S, Q104P, L129P
notes: as for B2
B3: binds [2].

B4: DR3 variant having SEQ ID NO: 5, fused with human IgG1 Fc (Fc fusion)
chain: B1 chain with E38K, V47P, W56R, A65T, K93A, Q101S, L129P
notes: Linker and Fc as for m2
For B4, the “Fold increase in Affinity (against WT)” value [1] was 1.7 fold, the Kd [1] was 26.9 nM and the koff [1] was 0.000643 s⁻¹. The kon [1] was 23900 M⁻¹ s⁻¹.

B5: DR3 variant having SEQ ID NO: 4, fused with human IgG1 Fc (Fc fusion)
chain: B1 chain with I18Y, D51G, K93E, L129P
notes: Linker and Fc as for m2
For B5, the “Fold increase in Affinity (against WT)” value [1] was 4.6 fold, the Kd [1] was 9.83 nM and the koff [1] was 0.000357 s⁻¹. For the same binder, the kon [1] was 36300 M⁻¹ s⁻¹.

B6: DR3 variant having SEQ ID NO: 2, fused with human IgG1 Fc (Fc fusion)
chain: B1 chain with I18Y, V47P, D51G, A65T, K93A, Q101S, L129P
notes: Linker and Fc as for m2
With B6 the “Fold increase in Affinity (against WT)” value [1] was 5 fold, the Kd [1] was 8.26 nM and the koff [1] was 0.000351 s⁻¹. It also gave a kon [1] of 42600 M⁻¹ s⁻¹.

B7: DR3 variant having SEQ ID NO: 3, fused with human IgG1 Fc (Fc fusion)
chain: B1 chain with I18T, V47P, D51G, N61E, K93E, Q104P, L129P
notes: Linker and Fc as for m2
In the case of B7, the “Fold increase in Affinity (against WT)” value [1] is reported as 6.6 fold, the Kd [1] is reported as 6.79 nM and the koff [1] is reported as 0.000237 s⁻¹. For the same binder, the kon [1] was 34900 M⁻¹ s⁻¹.

B8: DR3 variant having SEQ ID NO: 6, fused with human IgG1 Fc (Fc fusion)
chain: B1 chain with H15Q, V47P, W56R, Q104P
notes: as for B2
B8: binds [2].

B9: DR3 (receptor, human, UniProt Q93038 25-199, looked up)
receptor extracellular domain displayed on the yeast surface as an Aga2 fusion: QGGTRSPRCDCAGDFHKKIGLFCCRGCPAGHYLKAPCTEPCGNSTCLVCPQDTFLAWENHHNSECARCQACDEQASQVALENCSAVADTRCGCKPGWFVECQVSQCVSSSPFYCQPCLDCGALHRHTRLLCSRRDTDCGTCLPGFYEHGDGCVSCPTSTLGSCPERCAAVCGWRQ
notes: extracellular domain, wild type, Aga2 fusion on EBY100 yeast
B9: binds [3].
